In patent US20220195014A1:

Target: recombinant human NPR3 extracellular domain portion (amino acids Gly27-Ser482) fused to the Fc portion of mouse IgG2a (human; mouse) (UniProt P17342)
Experiment: blocking ELISA, plate-coated hNPR3-mFc, competitor biotin-hANP, 1 µg/mL control antibody

Chain of UniProt P17342 (P17342 27-482 limits assumed): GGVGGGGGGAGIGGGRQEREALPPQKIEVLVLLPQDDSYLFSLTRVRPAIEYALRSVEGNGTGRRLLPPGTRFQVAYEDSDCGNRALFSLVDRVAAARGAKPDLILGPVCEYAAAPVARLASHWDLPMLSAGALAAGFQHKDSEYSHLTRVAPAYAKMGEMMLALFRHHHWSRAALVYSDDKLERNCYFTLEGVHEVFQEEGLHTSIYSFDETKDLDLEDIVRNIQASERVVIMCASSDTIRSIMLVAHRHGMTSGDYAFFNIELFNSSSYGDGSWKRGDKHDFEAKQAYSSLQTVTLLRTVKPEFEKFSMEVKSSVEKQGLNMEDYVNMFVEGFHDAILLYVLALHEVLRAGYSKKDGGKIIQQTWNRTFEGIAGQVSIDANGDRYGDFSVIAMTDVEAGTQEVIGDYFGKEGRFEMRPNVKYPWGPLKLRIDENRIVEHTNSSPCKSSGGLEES

percent blockade: 32%
Substance: non-binding human IgG1 isotype control antibody (blocking ELISA)
